How the values were obtained:
[1] = molecular target: huROR1-His (human ROR1 ECD AA30-406 with C-terminal His tag, made in house) (human) (UniProt Q01973); assay: Biacore T200 SPR; huROR1-His amine-coupled (~75 RU), antibody 4 and 20 nM as analyte, 1:1 Langmuir fit
[2] = molecular target: human ROR1 on cells (full-length human ROR1 on huROR1-HEK293 cells; human ROR1 on A549 and HT-29 tumor cells) (human) (UniProt Q01973); assay: flow cytometry (FACS) on A549 tumor cells, anti-human IgG-Fc secondary antibody, MFI
human ROR1 on cells (full-length human ROR1 on huROR1-HEK293 cells; human ROR1 on A549 and HT-29 tumor cells) (human), sequence (Q01973 30-937): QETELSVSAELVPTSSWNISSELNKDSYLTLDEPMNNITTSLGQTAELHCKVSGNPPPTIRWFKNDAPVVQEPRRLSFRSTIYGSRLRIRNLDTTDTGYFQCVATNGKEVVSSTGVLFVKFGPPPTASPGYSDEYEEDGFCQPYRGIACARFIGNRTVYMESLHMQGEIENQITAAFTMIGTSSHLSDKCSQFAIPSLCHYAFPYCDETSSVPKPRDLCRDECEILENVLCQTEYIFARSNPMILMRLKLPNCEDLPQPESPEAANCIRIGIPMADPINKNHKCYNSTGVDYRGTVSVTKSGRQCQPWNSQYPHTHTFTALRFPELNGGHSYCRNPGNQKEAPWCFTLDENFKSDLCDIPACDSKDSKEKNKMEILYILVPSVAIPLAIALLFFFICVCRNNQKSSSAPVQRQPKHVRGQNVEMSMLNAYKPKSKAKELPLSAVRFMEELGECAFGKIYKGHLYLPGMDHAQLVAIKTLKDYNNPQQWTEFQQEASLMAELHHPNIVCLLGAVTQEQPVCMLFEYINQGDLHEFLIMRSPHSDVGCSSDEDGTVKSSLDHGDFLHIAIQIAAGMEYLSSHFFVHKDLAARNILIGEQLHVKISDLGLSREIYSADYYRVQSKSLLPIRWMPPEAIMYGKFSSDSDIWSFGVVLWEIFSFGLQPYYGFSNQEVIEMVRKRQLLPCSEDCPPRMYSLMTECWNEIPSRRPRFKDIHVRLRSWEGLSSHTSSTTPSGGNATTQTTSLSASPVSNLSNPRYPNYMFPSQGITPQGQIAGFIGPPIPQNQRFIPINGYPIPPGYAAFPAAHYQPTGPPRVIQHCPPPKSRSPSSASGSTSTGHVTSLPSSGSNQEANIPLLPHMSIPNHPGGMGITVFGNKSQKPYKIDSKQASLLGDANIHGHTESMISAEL

[3] = molecular target: huROR1-His (human ROR1 ECD AA30-406 with C-terminal His tag, made in house) (human) (UniProt Q01973); assay: ELISA, huROR1-His coated plate, goat anti-human Fc-HRP, OD450
[4] = molecular target: huROR1-His (human ROR1 ECD AA30-406 with C-terminal His tag, made in house) (human) (UniProt Q01973); assay: as above; remark: listed apart in the source
[5] = molecular target: human ROR1 on cells (full-length human ROR1 on huROR1-HEK293 cells; human ROR1 on A549 and HT-29 tumor cells) (human) (UniProt Q01973); assay: flow cytometry (FACS) on HT29 (HT-29) tumor cells, anti-human IgG-Fc secondary antibody, MFI
[6] = molecular target: huROR1-His (human ROR1 ECD AA30-406 with C-terminal His tag, made in house) (human) (UniProt Q01973); assay: ELISA, huROR1-His coated at 2 µg/mL, goat anti-human Fc-HRP, OD450
[7] = molecular target: human ROR1 on cells (full-length human ROR1 on huROR1-HEK293 cells; human ROR1 on A549 and HT-29 tumor cells) (human) (UniProt Q01973); assay: flow cytometry (FACS) on A549 tumor cells, anti-human IgG-Fc secondary antibody, MFI; remark: listed apart in the source
[8] = molecular target: huROR1-His (human ROR1 ECD AA30-406 with C-terminal His tag, made in house) (human) (UniProt Q01973); assay: ELISA, huROR1-His coated plate, goat anti-human Fc-HRP, OD450; remark: listed apart in the source
[9] = molecular target: huROR1-His (human ROR1 ECD AA30-406 with C-terminal His tag, made in house) (human) (UniProt Q01973); assay: ELISA, huROR1-His coated at 2 µg/mL, goat anti-human Fc-HRP, OD450; remark: listed apart in the source
[10] = molecular target: huROR1-His (human ROR1 ECD AA30-406 with C-terminal His tag, made in house) (human) (UniProt Q01973); assay: ELISA, huROR1-His coated plate, goat anti-human Fc-HRP, OD450; remark: listed apart in the source
[11] = molecular target: huROR1-His (human ROR1 ECD AA30-406 with C-terminal His tag, made in house) (human) (UniProt Q01973); assay: Gator (BLI) Advanced Kinetics; antibody 30 nM, huROR1-His 480-7.5 nM
[12] = molecular target: huROR1-His (human ROR1 ECD AA30-406 with C-terminal His tag, made in house) (human) (UniProt Q01973); assay: ELISA, huROR1-His coated plate, goat anti-human Fc-HRP, OD450; remark: listed apart in the source
[13] = molecular target: human ROR1 on cells (full-length human ROR1 on huROR1-HEK293 cells; human ROR1 on A549 and HT-29 tumor cells) (human) (UniProt Q01973); assay: flow cytometry (FACS) on huROR1-HEK293 cells, anti-human IgG-Fc secondary antibody, MFI
[14] = molecular target: human ROR1 on cells (full-length human ROR1 on huROR1-HEK293 cells; human ROR1 on A549 and HT-29 tumor cells) (human) (UniProt Q01973); assay: as above; remark: listed apart in the source

huROR1-His (human ROR1 ECD AA30-406 with C-terminal His tag, made in house) (human), sequence (Q01973 30-406 limits assumed): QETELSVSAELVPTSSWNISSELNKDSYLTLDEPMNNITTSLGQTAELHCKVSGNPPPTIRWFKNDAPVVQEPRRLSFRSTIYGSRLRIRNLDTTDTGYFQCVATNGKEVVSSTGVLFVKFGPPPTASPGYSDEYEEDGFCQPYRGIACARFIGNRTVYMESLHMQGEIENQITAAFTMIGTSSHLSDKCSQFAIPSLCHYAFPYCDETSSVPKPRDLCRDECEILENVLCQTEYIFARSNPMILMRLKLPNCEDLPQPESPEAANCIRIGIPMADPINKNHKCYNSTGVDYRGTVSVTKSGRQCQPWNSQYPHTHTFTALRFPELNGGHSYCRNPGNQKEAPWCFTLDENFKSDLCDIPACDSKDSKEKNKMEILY

Cirmtuzumab (positive control anti-ROR1 antibody, clone number 99961.1)
Kd [1]: 1.98 nM
koff [1]: 0.00137 s⁻¹
kon [1]: 694000 M⁻¹ s⁻¹
t 1/2 [1]: 8.41 min
EC50 (read off the curve) [2]: 10 ng/mL
EC50 [3]: 3 ng/mL
EC50 [4]: 3.3 ng/mL
EC50 (read off the curve) [5]: 20 ng/mL
EC50 [6]: 5.12 ng/mL
EC50 (read off the curve) [7]: 3 ng/mL
EC50 [8]: 2.56 ng/mL
EC50 [9]: 5.78 ng/mL
EC50 [10]: 3 ng/mL
Kd [11]: 13.5 nM
koff [11]: 0.00712 s⁻¹
kon [11]: 529000 M⁻¹ s⁻¹
EC50 [12]: 3.24 ng/mL
EC50 (read off the curve) [13]: 50 ng/mL
EC50 (read off the curve) [14]: 60 ng/mL
